# Source: US20210130436A1 (published 2021)
# Substitutions are numbered along the chain they refer to. Names may count otherwise.
# B1: CD80 E35D/M47V/N48K IgV-Fc (Fc fusion, not shown: small tags and cut ends; a dimerising Fc or GST)
# chain: VIHVTKEVKEVATLSCGHNVSVEELAQTRIYWQKDKKMVLTMMSGDVKIWPEYKNRTIFDITNNLSIVILALRPSDEGTYECVVLKYEKDAFKREHLAEVTLSVKAD
# B2: variant CD80 IgV-Fc Q33L/E35D/M47V/L85Q (Fc fusion, not shown: a dimerising Fc or GST)
# chain: B1 chain with Q33L, K48N, L85Q
# B3: variant CD80 IgV-Fc H18Y/A26E/Q33L/E35D/M47L/L85Q (Fc fusion, not shown: a dimerising Fc or GST)
# chain: B1 chain with H18Y, A26E, Q33L, V47L, K48N, L85Q
# B4: variant CD80 IgV-Fc A26E/Q33L/E35D/M47L (Fc fusion, not shown: a dimerising Fc or GST)
# chain: B1 chain with A26E, Q33L, V47L, K48N
# B5: variant CD80 IgV-Fc A26E/E35D/M43T/M47L/L85Q/R94Q (Fc fusion, not shown: a dimerising Fc or GST)
# chain: B1 chain with A26E, M43T, V47L, K48N, L85Q, R94Q
# B6: variant CD80 IgV-Fc E35D/M47I/E77A/L85Q/R94W (Fc fusion, not shown: a dimerising Fc or GST)
# chain: B1 chain with V47I, K48N, E77A, L85Q, R94W
# B7: CD80 E35D/M47V/N48K/V68M IgV-Fc (Fc fusion, not shown: small tags and cut ends; a dimerising Fc or GST)
# chain: B1 chain with V68M
# B8: variant CD80 IgV-Fc Q33L/E35D/T41S/M43I (Fc fusion, not shown: a dimerising Fc or GST)
# chain: B1 chain with Q33L, T41S, M43I, V47M, K48N
# B9: CD80 N48K/V68M/K89N IgV-Fc (Fc fusion, not shown: small tags and cut ends; a dimerising Fc or GST)
# chain: B1 chain with D35E, V47M, V68M, K89N
# B10: variant CD80 IgV-Fc H18Y/V20A/Q33L/E35D/M47V/Y53F (Fc fusion, not shown: a dimerising Fc or GST)
# chain: B1 chain with H18Y, V20A, Q33L, K48N, Y53F
# B11: variant CD80 IgV-Fc H18Y/Q33L/E35D/M47I (Fc fusion, not shown: a dimerising Fc or GST)
# chain: B1 chain with H18Y, Q33L, V47I, K48N
# B12: variant CD80 IgV-Fc E7D/E35D/M47I/L97Q (Fc fusion, not shown: a dimerising Fc or GST)
# chain: B1 chain with E7D, V47I, K48N, L97Q
# B13: variant CD80 IgV-Fc H18Y/E35D/M47L (Fc fusion, not shown: a dimerising Fc or GST)
# chain: B1 chain with H18Y, V47L, K48N
# B14: CD80 V68M/K89N IgV-Fc (Fc fusion, not shown: small tags and cut ends; a dimerising Fc or GST)
# chain: B1 chain with D35E, V47M, K48N, V68M, K89N
# B15: variant CD80 IgV-Fc (inert) A26P/E35D/M47I/V68M/A71G/D90G (Fc fusion)
# chain: B1 chain with A26P, V47I, K48N, V68M, A71G, D90G
# notes: not shown: inert human IgG1 Fc
# B16: variant CD80 IgV-Fc A26E/Q33R/E35D/M47L/L85Q (Fc fusion, not shown: a dimerising Fc or GST)
# chain: B1 chain with A26E, Q33R, V47L, K48N, L85Q
# B17: variant CD80 IgV-Fc Q27H/Q33L/E35D/M47V/N55D/L85Q/K89N (Fc fusion, not shown: a dimerising Fc or GST)
# chain: B1 chain with Q27H, Q33L, K48N, N55D, L85Q, K89N
# B18: variant CD80 IgV-Fc A26E/Q33R/E35D/M47L/L85Q/K86E (Fc fusion, not shown: a dimerising Fc or GST)
# chain: B1 chain with A26E, Q33R, V47L, K48N, L85Q, K86E
# notes: Fc fusions are described in general as dimers
# B19: CD80 E35D/M47V/V68M/K89N IgV-Fc (Fc fusion, not shown: small tags and cut ends; a dimerising Fc or GST)
# chain: B1 chain with K48N, V68M, K89N
# B20: CD80 E35D/V68M/K89N IgV-Fc (Fc fusion, not shown: small tags and cut ends; a dimerising Fc or GST)
# chain: B1 chain with V47M, K48N, V68M, K89N
# B21: variant CD80 IgV-Fc (inert) H18Y/A26P/E35D/M47V/V68M/A71G (Fc fusion)
# chain: B1 chain with H18Y, A26P, K48N, V68M, A71G
# notes: as for B15
# B22: variant CD80 IgV-Fc A26E/Q33L/E35D/M47L/L85Q (Fc fusion, not shown: a dimerising Fc or GST)
# chain: B1 chain with A26E, Q33L, V47L, K48N, L85Q
# B23: variant CD80 IgV-Fc (inert) H18F/A26P/E35D/M47I/V68M/A71G/D90G (Fc fusion)
# chain: B1 chain with H18F, A26P, V47I, K48N, V68M, A71G, D90G
# notes: as for B15
# B24: variant CD80 IgV-Fc E35D/M47L/L85Q (Fc fusion, not shown: a dimerising Fc or GST)
# chain: B1 chain with V47L, K48N, L85Q
# B25: variant CD80 IgV-Fc H18L/V22A/E35D/M47L/N48T/L85Q (Fc fusion, not shown: a dimerising Fc or GST)
# chain: B1 chain with H18L, V22A, V47L, K48T, L85Q
# What was measured:
# [1] = target: T1, human PD-L1 expressed on CHO cells (human, UniProt Q9NZQ7 19-290); assay: flow cytometry, CHO cells stably expressing PD-L1, Fc fusion at 33.3 nM
# T1 construct: whole, on cells; Target on CHO cells stably expressing PD-L1; also called huPD-L1
# T1 sequence (Q9NZQ7 19-290): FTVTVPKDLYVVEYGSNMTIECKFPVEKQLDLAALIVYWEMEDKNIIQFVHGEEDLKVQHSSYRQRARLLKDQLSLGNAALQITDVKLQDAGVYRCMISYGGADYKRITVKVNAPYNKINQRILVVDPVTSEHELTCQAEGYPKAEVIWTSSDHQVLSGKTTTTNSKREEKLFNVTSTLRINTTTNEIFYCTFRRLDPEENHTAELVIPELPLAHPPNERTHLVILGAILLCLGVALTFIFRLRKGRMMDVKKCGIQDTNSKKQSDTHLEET
# [2] = target: T2, human CTLA4 expressed on CHO cells (human, UniProt P16410 36-223); assay: flow cytometry, CHO cells stably expressing CTLA4, Fc fusion at 33.3 nM
# T2 construct: whole, on cells; Target on CHO cells stably expressing CTLA4; also called huCTLA4
# T2 sequence (P16410 36-223): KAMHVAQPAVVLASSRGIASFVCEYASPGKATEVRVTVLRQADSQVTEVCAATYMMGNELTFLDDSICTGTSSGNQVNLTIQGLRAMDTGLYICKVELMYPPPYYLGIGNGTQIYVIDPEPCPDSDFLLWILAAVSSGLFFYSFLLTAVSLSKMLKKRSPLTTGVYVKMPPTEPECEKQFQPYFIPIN
# [3] = target: T3, human CTLA4 (full-length, expressed on CHO cells) (human, UniProt P16410 36-223); assay: flow cytometry, CHO cells expressing huCTLA4, PE anti-human Fc
# T3 construct: also called huCTLA4
# T3 sequence (P16410 36-223): as above
# [4] = target: T4, human PD-L1 (full-length, expressed on CHO cells) (human, UniProt Q9NZQ7 19-290); assay: flow cytometry, CHO cells expressing huPD-L1, PE anti-human Fc
# T4 construct: also called huPD-L1; CD274
# T4 sequence (Q9NZQ7 19-290): as the sequence (Q9NZQ7 19-290) above
# [5] = target: T4, human PD-L1 (full-length, expressed on …); assay: flow cytometry MFI at 33.3 nM relative to WT CD80 ECD-Fc (R&D), CHO/huPD-L1 cells
# [6] = target: T3, human CTLA4 (full-length, expressed on …); assay: flow cytometry MFI at 33.3 nM relative to WT CD80 ECD-Fc (R&D), CHO/huCTLA4 cells
# [7] = target: T5, CD28 (endogenously expressed on Jurkat/IL2 reporter cells) (human, UniProt P10747 19-220); assay: flow cytometry MFI at 33.3 nM relative to WT CD80 ECD-Fc (R&D), Jurkat cells
# T5 construct: Endogenous CD28 of Jurkat cells; also called human CD28
# [8] = target: T5, CD28 (endogenously expressed on …); assay: flow cytometry, Jurkat/IL2 reporter cells (endogenous CD28), PE anti-human Fc
# [9] = target: T4, human PD-L1 (full-length, expressed on …); assay: flow cytometry, MFI on CHO/huPD-L1 cells over MFI on Jurkat (CD28) cells, 33.3 nM
# [10] = target: T6, human CTLA-4 (human, UniProt P16410 36-223); assay: flow cytometry, CHO cells stably expressing huCTLA-4, 33.3 nM Fc fusion, PE anti-human Fc
# T6 construct: whole, on cells; CHO cells stably expressing huCTLA4; also called huCTLA4
# T6 sequence (P16410 36-223): as the sequence (P16410 36-223) above
# [11] = target: T7, human CD28 (human, UniProt P10747 19-220); assay: flow cytometry, Jurkat/IL2 reporter cells (endogenous CD28), 33.3 nM Fc fusion, PE anti-human Fc
# T7 construct: whole, on cells; Jurkat/IL2 reporter cells, which endogenously express CD28
# [12] = target: T8, human PD-L1 (human, UniProt Q9NZQ7 19-290); assay: flow cytometry, CHO cells stably expressing huPD-L1, 33.3 nM Fc fusion, PE anti-human Fc
# T8 construct: whole, on cells; CHO cells stably expressing huPD-L1; also called huPD-L1
# T8 sequence (Q9NZQ7 19-290): as the sequence (Q9NZQ7 19-290) above
Binder,MFI at 33.3 nM [1],MFI at 33.3 nM [2],MFI at 33.3 nM [3],MFI at 33.3 nM [4],Fold change to WT [5],Fold change to WT CD80 [6],Fold change to WT [7],MFI at 33.3 nM [8],Ratio of PDL1:CD28 [9],MFI at 33.3 nM [10],MFI at 33.3 nM [11],MFI at 33.3 nM [12]
B1,4850 MFI,47400 MFI,,,,,,,,,,
B2,,,75400 MFI,47400 MFI,5.97 fold,0.42 fold,0.04 fold,268 MFI,177 ratio,,,
B3,,,2090 MFI,76600 MFI,9.64 fold,0.01 fold,0.04 fold,272 MFI,282 ratio,,,
B4,,,1320 MFI,60900 MFI,7.67 fold,0.01 fold,0.04 fold,271 MFI,225 ratio,,,
B5,,,278000 MFI,68100 MFI,8.57 fold,1.56 fold,0.03 fold,260 MFI,262 ratio,,,
B6,,,247000 MFI,64500 MFI,8.12 fold,1.38 fold,0.04 fold,272 MFI,238 ratio,,,
B7,23500 MFI,32900 MFI,,,,,,,,,,
B8,,,6390 MFI,44900 MFI,5.66 fold,0.04 fold,,,104 ratio,,,
B9,11500 MFI,19100 MFI,,,,,,,,,,
B10,,,2880 MFI,121000 MFI,15.2 fold,0.02 fold,0.03 fold,260 MFI,463 ratio,,,
B11,,,5540 MFI,47800 MFI,6.02 fold,0.03 fold,0.04 fold,295 MFI,162 ratio,,,
B12,,,271000 MFI,14600 MFI,1.84 fold,1.52 fold,0.04 fold,273 MFI,54 ratio,,,
B13,,,284000 MFI,44200 MFI,5.56 fold,1.59 fold,0.66 fold,5070 MFI,9 ratio,,,
B14,538 MFI,2330 MFI,,,,,,,,,,
B15,,,,,,,,,,19800 MFI,8190 MFI,
B16,,,1280 MFI,81500 MFI,10.3 fold,0.01 fold,0.03 fold,264 MFI,309 ratio,,,
B17,,,56100 MFI,14800 MFI,1.86 fold,0.31 fold,0.04 fold,269 MFI,55 ratio,,,
B18,,,1280 MFI,76000 MFI,9.56 fold,0.01 fold,0.04 fold,275 MFI,276 ratio,,,
B19,21800 MFI,29500 MFI,,,,,,,,,,
B20,,24800 MFI,,,,,,,,,,
B21,,,,,,,,,,,6910 MFI,51500 MFI
B22,,,1170 MFI,62700 MFI,7.89 fold,0.01 fold,0.04 fold,274 MFI,229 ratio,,,
B23,,,,,,,,,,23900 MFI,4800 MFI,32300 MFI
B24,,,336000 MFI,33200 MFI,4.18 fold,1.88 fold,0.08 fold,646 MFI,51 ratio,,,
B25,,,374000 MFI,98100 MFI,12.3 fold,2.09 fold,,,226 ratio,,,
